{"source": "the nanobody polyreactivity screen of Harvey et al. (2022)", "data": [{"assay": "yeast display, Sf9 membrane polyspecificity reagent, FACS + sequencing; frameworks hold sequencing errors", "outline": "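A synthetic nanobody library was expressed on Saccharomyces cerevisiae BJ5465 by galactose induction for 36–48 hours. The library was stained for 1 hour at 4 °C with 10% biotinylated, detergent-solubilized Sf9 membrane reagent and enriched with streptavidin microbeads before FACS. Low and high (top ~1%) gates were set on anti-HA fluorescence for expression and streptavidin fluorescence for reagent binding, and each polyreactivity label reflects the gate of origin.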", "values": [{"sequence": "QVQLVESGGGLVQAGGSLRLSCAASGRTFAYNAMGWYRQAPGKERELVAAISRRGGSTFYADSVKGRFTISRDNAKNTVYLQMNSLKPEDTAVYYCARDSYYIGRWLYYWGQGTQVTVSS", "polyreactivity (PSR sort gate)": "high polyreactivity"}, {"sequence": "QVQLVESGGGLVQAGGSLRLSCAASGRTFAYNAMGWYRQAPGKERELVAAITFGGGSTYYADSVKGRFTISRDNAKNTVYLQMNSLKPEDTAVYYCTAERGYYYHFGYWGQGTQVTVSS", "polyreactivity (PSR sort gate)": "high polyreactivity"}, {"sequence": "QVQLVESGGGLVQAGGSLRLSCAASGRTFAYYAMGWYRQAPGKERELVAAITQSGGRTYYADSVKGRFTISRDNAKNTVYLQMNSLKPEDTAVDYCAARRISGKWEYDYWGQGTQVTVSS", "polyreactivity (PSR sort gate)": "high polyreactivity"}, {"sequence": "QVQLVESGGGLVQAGGSLRLSCAASGRTFCSNAMGWYRPAPGKERELVAAISNGDNTYYADSVKGRFTISRDNAKNTVYLQMNSLKPEDTAVYYCNADYTVYDTEYDYWGQGTQVTVSS", "polyreactivity (PSR sort gate)": "low polyreactivity"}, {"sequence": "QVQLVESGGGLVQAGGSLRLSCAASGRTFDFYAMGWYRQAPGKERELVAAITFSTGSTTYADSVKGRFTISRDNAKNTVYLQMNSLKPEDTAVYYCGADGDGWWWSYVDRYDYWGQGTQVTVSS", "polyreactivity (PSR sort gate)": "low polyreactivity"}, {"sequence": "QVQLVESGGGLVQAGGSLRLSCAASGRTFDFYVMGWYRHAPGKERELVAAISSGGSTNYADSVKGRFTISRDNAKYTVYLQMNSLKPEDTAVYYCAADPSGDYWGQGTQVTVSS", "polyreactivity (PSR sort gate)": "low polyreactivity"}, {"sequence": "QVQLVESGGGLVQAGGSLRLSCAASGRTFDGNAMGWYRQAPGKERELVAAISKRGGTTYYADSVKGRFTISRDNAKNTVYLQMNSLKPEDTAVYYCAAPYNTYSYSEGEYWGQGTQVTVSS", "polyreactivity (PSR sort gate)": "low polyreactivity"}, {"sequence": "QVQLVESGGGLVQAGGSLRLSCAASGRTFDGNVMGWYRQAPGKERELVAAITASGGRTYYADSVKGRFTISRDNAKNTVYLQMNSLKPEDTAVYFCAADPTYLRTLRFGSYDYWGQGTQVTVSS", "polyreactivity (PSR sort gate)": "high polyreactivity"}, {"sequence": "QVQLVESGGGLVQAGGSLRLSCAASGRTFDGYTMGWYRQAPGKERELVAAIRRSGGSTYYADSVKGRFTISRDNAKNTVYLQINSLNPEDTAVYYCAASWRDIYRHYNVYPYDYWGQGTQVTVSS", "polyreactivity (PSR sort gate)": "low polyreactivity"}, {"sequence": "QVQLVESGGGLVQAGGSLRLSCAASGRTFDGYVMGWYRQAPGKERELVAAISWGGSSTYYADSVKGRFTISRDNAKNTVYLQMNSLKPEDTAVYYCAKDTVPYERDYWGQGTQVTVSS", "polyreactivity (PSR sort gate)": "low polyreactivity"}, {"sequence": "QVQLVESGGGLVQAGGSLRLSCAASGRTFDINAMGWYRQAPGKERELVAAISGRGGRTYYADSVKGRFTISRDNAKNTVYLQMNSLKPEDSAVYYCAARAQWSSLEYWGQGTQVTVSS", "polyreactivity (PSR sort gate)": "high polyreactivity"}, {"sequence": "QVQLVESGGGLVQAGGSLRLSCAASGRTFDLNDMGWYRQAPGKERELVAGINSGGSTKYADSVKGRFTISRDNAKNTVSLQMNSLKPEDTAVYYCATRWPGGSRWPFYLTYDYWGQGTQVTVSS", "polyreactivity (PSR sort gate)": "low polyreactivity"}, {"sequence": "QVQLVESGGGLVQAGGSLRLSCAASGRTFDLYAMGWYRQAPGKEREFVAAISWRGGRTYYADSVKGRFTISRDNAKNTVYLQMNSQKPEDTAVYYCAARTGATSRIRFDYWGQGTQVTVSS", "polyreactivity (PSR sort gate)": "low polyreactivity"}, {"sequence": "QVQLVESGGGLVQAGGSLRLSCAASGRTFDPNAMGWYRPAPGKERELVAAISSSAGSTYYADSVKGRFTISRDNAKNTVYLQMNSLNPEDPALYFCAAGSGTFVTRYRYGYWGQGTQVTVSS", "polyreactivity (PSR sort gate)": "high polyreactivity"}, {"sequence": "QVQLVESGGGLVQAGGSLRLSCAASGRTFDRNAMGWYRQAPGKEREFVAAISYRGASTYADSVKGRFTISRDNAKNTVYLQMNSLKPEDTAVYYCAARVTYYGTSGYYYWGQGTQVTVSS", "polyreactivity (PSR sort gate)": "high polyreactivity"}, {"sequence": "QVQLVESGGGLVQAGGSLRLSCAASGRTFDRNAMGWYRQAPGKERELVAAISRGGTTYYADSVKGRFTISRDNAKNTVYLQMNSLKPEDTAVYYCARVGRYRYEWGQGTQVTVSS", "polyreactivity (PSR sort gate)": "high polyreactivity"}, {"sequence": "QVQLVESGGGLVQAGGSLRLSCAASGRTFDRNAMGWYRQAPGKERELVAAITSRGGRTYYADSVKGRFTISRDNAKNTVYLQMNSLKPEDTAVYYCNAARGWGYDSWGQGTQVTVSS", "polyreactivity (PSR sort gate)": "high polyreactivity"}, {"sequence": "QVQLVESGGGLVQAGGSLRLSCAASGRTFDRNAMGWYRQAPGQERELVAAITSRGGRTYYADSVKGRFTISRDNEKNTVYLQMNSLKPADTAVYYCAADLFSSRVRSNFDYWGQGTQVTVSS", "polyreactivity (PSR sort gate)": "high polyreactivity"}, {"sequence": "QVQLVESGGGLVQAGGSLRLSCAASGRTFDRYAMGWYRQAPGKERELVAAITWSGGRTYYADSVKGRFTISRDNAKNTVYLQINSLKPEDTAVYYCAAAPRSYFTSEYWGQGTQVTVSS", "polyreactivity (PSR sort gate)": "low polyreactivity"}, {"sequence": "QVQLVESGGGLVQAGGSLRLSCAASGRTFDSNAMGWYRQAPGKERELVAAIYADSVKGRFTISRDNAKNTVYLQMNSLKPEDTAVYYCAAETYSGQTYLGEYDYWGQGTEVTVSS", "polyreactivity (PSR sort gate)": "low polyreactivity"}, {"sequence": "QVQLVESGGGLVQAGGSLRLSCAASGRTFDTNAMGWYRQAPGKERELVAAISWSAGRTYYADSVKGRFTISRDNAKNTVYLQMNSLKPEDTAVYYCAARPPFIAYSWQKQGYYWGQGTQVTVSS", "polyreactivity (PSR sort gate)": "low polyreactivity"}, {"sequence": "QVQLVESGGGLVQAGGSLRLSCAASGRTFDTYAMGWYRQAPGKEREFVARISYGGGITYYADSVKGRFTISRDNAKNTVYLQMNSLKPEDTAVYYCAARRFRTYDFYYWGQGTQVTVSS", "polyreactivity (PSR sort gate)": "high polyreactivity"}, {"sequence": "QVQLVESGGGLVQAGGSLRLSCAASGRTFDVNAMGWYRQAPGKERELVAAIRISGGSTYYADSVKGRFTISRDNAKNTVYLQMNSLKPEDTAVYYCAAYERRYRNAYDYWGQGTQVTVSS", "polyreactivity (PSR sort gate)": "high polyreactivity"}, {"sequence": "QVQLVESGGGLVQAGGSLRLSCAASGRTFDVNAMGWYRQAPGKERELVAAITWDGGSTYYADSVKGRFTISRDNAKNTVYLQMNSLKPEDTALYYCAADFIQGAWWYVTYRYTYEYWGQGTQVTVSS", "polyreactivity (PSR sort gate)": "low polyreactivity"}, {"sequence": "QVQLVESGGGLVQAGGSLRLSCAASGRTFDVYAMGWYRQAPGKERELVATISYRSARTYYADSVKGRFTISRDNAKNTVYLQMNSLKPEDTAVYYCNAQSWRLYGHCYYWGQGTQVTVSS", "polyreactivity (PSR sort gate)": "high polyreactivity"}, {"sequence": "QVQLVESGGGLVQAGGSLRLSCAASGRTFDWNAMGWYRQAPGKERELVAAISGGGGSTYYADSVKGRFTISRDNAKNTVYLQMNSLKPEDTEVYYCATWNYYSYHRYDYWGQGTQVTVSS", "polyreactivity (PSR sort gate)": "high polyreactivity"}, {"sequence": "QVQLVESGGGLVQAGGSLRLSCAASGRTFDYNAMGWYRQAPGKERELVAAISGSGTRTFYADSVKGRFTISRDNAKNTVYLQMNSLKPEDTAVYYCAASHGWSKSIFYYWGQGTQVTVSS", "polyreactivity (PSR sort gate)": "high polyreactivity"}, {"sequence": "QVQLVESGGGLVQAGGSLRLSCAASGRTFDYNAMGWYRQAPGKERELVAAISSSGGSTYYADSVKGRFTISRDNAKNTVYLQMNSLKPEDTAVYYCDKRRNLWGYEYDSWGQGTQVTVSS", "polyreactivity (PSR sort gate)": "high polyreactivity"}, {"sequence": "QVQLVESGGGLVQAGGSLRLSCAASGRTFDYNAMVWYRQAPGKERELVAAISGSGTRTFYADSVKGRFTISRDNAKNTVYLLMNSLKPVDTAVYYCAASHGWSKSIFYYWGQGTQVTVSS", "polyreactivity (PSR sort gate)": "high polyreactivity"}, {"sequence": "QVQLVESGGGLVQAGGSLRLSCAASGRTFDYYAMGWYRQAPGKERELVAAIRLISGNRYYADSVKGRFTISRDNAKNTVYLQMNSLKPEDTAVYYCAARSDGVPSLYGGMDYWRQGTQVTVSS", "polyreactivity (PSR sort gate)": "low polyreactivity"}, {"sequence": "QVQLVESGGGLVQAGGSLRLSCAASGRTFEDYTMGWYRQAPGKERELVAAITGGGSTNYADSVKGRFTISRDNAKNTVYLQMNSLKPEDTAVYYCAARRKGGHISYGYDYWGQGTQVTVSS", "polyreactivity (PSR sort gate)": "high polyreactivity"}, {"sequence": "QVQLVESGGGLVQAGGSLRLSCAASGRTFEGNAMGWYRQAPGKERELVAAISWSGGSTYYANSVKGRFTISRDNAKNTVYLQMNSLKPEDTAVYYCAAVPVHTGSLYWGFTTGYDYWGQGTQVTVSS", "polyreactivity (PSR sort gate)": "low polyreactivity"}, {"sequence": "QVQLVESGGGLVQAGGSLRLSCAASGRTFEQNAMGWYRQAPGKEREFVAAITASSGRTSYADSVKGRFTISRDNAKNTVYLQMNSLKPEDTAVYDCAADLADRERRHNYWGQGTQVTVSS", "polyreactivity (PSR sort gate)": "low polyreactivity"}, {"sequence": "QVQLVESGGGLVQAGGSLRLSCAASGRTFEQNAMGWYRQAPGKERELVASITSVGSTDYADSVKGRFTISRDNAKNTVYLQMNSLKPEDTAVYYCAKTLCSQNYDFDYWGQGTQVTVSS", "polyreactivity (PSR sort gate)": "low polyreactivity"}, {"sequence": "QVQLVESGGGLVQAGGSLRLSCAASGRTFERYAMGWYRQAPGKERELVAAISWSGSSTYYADSVKARFTISRDISKNTVYLHMNSLKPEDTAVYYCNALFQQRYGYWGQGTQVTVSS", "polyreactivity (PSR sort gate)": "low polyreactivity"}, {"sequence": "QVQLVESGGGLVQAGGSLRLSCAASGRTFERYAMGWYRQAPGKERELVADISSSGSTNYADSVKGRFTISRDNAKNTVYLQMNRLNPEDTAVYYCAADYWRHWYWDVVEFDYWGQGTQVTVSS", "polyreactivity (PSR sort gate)": "high polyreactivity"}, {"sequence": "QVQLVESGGGLVQAGGSLRLSCAASGRTFETNAMGWYRQAPGKERELVAAISRSGGSTRYADSVKGRFTISRDNAKNTVYLQMNRLKPEDTAVYYCAVRVGLGGGYWGQGTQVTVSS", "polyreactivity (PSR sort gate)": "high polyreactivity"}, {"sequence": "QVQLVESGGGLVQAGGSLRLSCAASGRTFETYAMGWYRQAPGKERELVATIRSSGSTNYADSVKGRFTISRDNAKNTVYLQMNSLKPEDTAVYYCAAVYVYRTSYLISLYDYGYWGQGTQVTVSS", "polyreactivity (PSR sort gate)": "high polyreactivity"}, {"sequence": "QVQLVESGGGLVQAGGSLRLSCAASGRTFEWYAMGWYRPAPGKERELVAVISSGGSTNYADSVKGRFTISRDNAKNTVYLQMNSLIPEDTAVYYCAVLQARDGYWLYLYDYWGQGTQVTVSS", "polyreactivity (PSR sort gate)": "low polyreactivity"}, {"sequence": "QVQLVESGGGLVQAGGSLRLSCAASGRTFEYNAMGWYRQAPGKERELVAAISSSGGSTRYADSVKGRFTISRDNAKNTVYLQMNSLKPEDTAVYYCAKRGYTSSRRWIYDYRGQGTQVTVSS", "polyreactivity (PSR sort gate)": "high polyreactivity"}, {"sequence": "QVQLVESGGGLVQAGGSLRLSCAASGRTFFGYAMGWYRQAPGKERELVAAISSRGDSTYYADSVKGRFTISRDNAKNTVYLQMNSLKPEDTAVYYCNTYSTVYSYDYDYWGQGTQVTVSS", "polyreactivity (PSR sort gate)": "low polyreactivity"}]}]}
